Values joined by “and” are separate entries in the source; they are usually repeats but may differ in a detail not shown here. Equal values may be shown once.

The target in one test is PD-L1 (human) (UniProt Q9NZQ7). Nature of the test: flow cytometry on HEK293 cells transfected with PD-L1. On the technique in general: In flow cytometry, cells or beads pass a laser one at a time.
Another test has as its target CTLA4 (human) (UniProt P16410). Briefly: flow cytometry on HEK293 cells transfected with CTLA4.
Test [1] addresses human CD28, full length, on transfected HEK293 cells (human) (UniProt P10747). Briefly: flow cytometry, Fc fusion at 66.6 nM on HEK293 cells transfected with CD28.
For test [2], the target named is human PD-L1, full length, on transfected HEK293 cells (human) (UniProt Q9NZQ7). Briefly: flow cytometry, Fc fusion at 22.2 nM on HEK293 cells transfected with PD-L1.
For test [3], the target named is CD112R, expressed on transfected cells (human) (UniProt Q6DKI7). Briefly: flow cytometry on transfected cells.
Test [4] concerns the target CD96, expressed on transfected cells (UniProt P40200). Nature of the test: flow cytometry on transfected cells.
The target in test [5] is T1, human TIGIT, full length, expressed on transfected cells (human) (UniProt Q495A1).
T1 sequence: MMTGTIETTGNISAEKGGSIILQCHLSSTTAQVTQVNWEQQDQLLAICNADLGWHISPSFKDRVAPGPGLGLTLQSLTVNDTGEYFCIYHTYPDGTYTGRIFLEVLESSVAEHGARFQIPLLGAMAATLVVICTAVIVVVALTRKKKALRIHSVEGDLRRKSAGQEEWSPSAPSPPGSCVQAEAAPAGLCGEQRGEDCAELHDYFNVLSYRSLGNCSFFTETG
Briefly: flow cytometry on transfected cells.

Test [6] concerns the target T2, human CD226, full length, expressed on transfected cells (human) (UniProt Q15762).
T2 sequence: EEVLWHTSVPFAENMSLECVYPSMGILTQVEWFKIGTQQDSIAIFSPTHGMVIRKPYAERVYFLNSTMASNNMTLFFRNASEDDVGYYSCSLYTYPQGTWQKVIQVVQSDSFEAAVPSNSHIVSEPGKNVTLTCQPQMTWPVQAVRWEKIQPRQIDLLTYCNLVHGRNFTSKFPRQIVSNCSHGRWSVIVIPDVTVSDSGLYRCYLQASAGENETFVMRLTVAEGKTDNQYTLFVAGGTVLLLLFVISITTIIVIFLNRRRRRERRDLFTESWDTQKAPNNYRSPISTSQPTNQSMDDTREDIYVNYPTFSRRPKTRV
Briefly: flow cytometry on transfected cells.

Sequence of wild-type CD155 IgV-Fc (P15151 24-139 limits assumed): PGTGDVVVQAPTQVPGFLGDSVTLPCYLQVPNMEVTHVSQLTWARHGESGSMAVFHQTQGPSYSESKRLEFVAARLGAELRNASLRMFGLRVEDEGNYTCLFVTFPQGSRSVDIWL
Sequence of CD112R, expressed on transfected cells (human) (Q6DKI7 whole entry): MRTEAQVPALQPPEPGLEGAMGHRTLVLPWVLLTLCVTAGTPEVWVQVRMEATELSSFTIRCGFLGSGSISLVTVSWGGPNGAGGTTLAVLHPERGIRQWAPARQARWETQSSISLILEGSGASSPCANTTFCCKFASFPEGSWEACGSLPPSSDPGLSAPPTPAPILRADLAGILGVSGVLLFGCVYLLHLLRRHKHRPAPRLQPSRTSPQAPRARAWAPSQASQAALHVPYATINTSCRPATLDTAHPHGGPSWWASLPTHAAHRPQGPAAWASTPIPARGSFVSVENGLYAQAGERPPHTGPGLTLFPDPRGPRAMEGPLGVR
Sequence of human PD-L1, full length, on transfected HEK293 cells (human) (Q9NZQ7 19-290 limits assumed): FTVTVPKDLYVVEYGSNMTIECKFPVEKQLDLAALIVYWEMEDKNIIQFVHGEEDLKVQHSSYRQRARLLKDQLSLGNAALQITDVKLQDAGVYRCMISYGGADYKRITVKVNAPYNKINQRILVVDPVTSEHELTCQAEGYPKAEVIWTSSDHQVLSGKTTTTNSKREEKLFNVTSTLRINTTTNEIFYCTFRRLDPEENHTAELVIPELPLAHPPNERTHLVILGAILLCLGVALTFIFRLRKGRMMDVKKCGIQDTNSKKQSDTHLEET
Sequence of PD-L1 (human) (Q9NZQ7 19-290 limits assumed): as above
Sequence of CTLA4 (human) (P16410 36-223 limits assumed): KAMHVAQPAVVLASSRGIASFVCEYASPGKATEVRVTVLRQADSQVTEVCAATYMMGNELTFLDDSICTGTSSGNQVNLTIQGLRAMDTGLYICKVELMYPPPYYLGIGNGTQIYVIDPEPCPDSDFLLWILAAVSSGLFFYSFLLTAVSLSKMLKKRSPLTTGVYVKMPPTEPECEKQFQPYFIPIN

For the substance “CD80 IgV-Fc I30V/T57I/L70P/A71D/A91T (from UniProt P33681 35-141) (Fc fusion)”, the MFI at 22.2 nM with PD-L1 (human) was determined as 5890 MFI.
As for “CD80 IgV-Fc M47L/V68A (from UniProt P33681 35-141) (Fc fusion)”, in the test with CTLA4 (human), the MFI at 66.6 nM was found to be 74200 MFI.
Substance “CD80 IgV-Fc Q27H/M43I/A71D/R73S (from UniProt P33681 35-141) (Fc fusion)” showed an MFI at 22.2 nM with PD-L1 (human) of 8240 MFI.
“CD80 variant IgV-Fc A12T/E24D/E35D/D46V/I61V/L72P/E95V (from UniProt P33681 35-141) (Fc fusion)” gave an MFI at 66.6 nM in test [1] of 7410 MFI. This substance had an MFI at 22.2 nM in test [2] of 1220 MFI.
In turn, “CD80 variant IgV-Fc A71D/L72V/E95K (from UniProt P33681 35-141) (Fc fusion)” registered an MFI at 66.6 nM in test [1] of 6310 MFI. Moreover, the MFI at 22.2 nM in test [2] worked out at 8420 MFI.
Regarding “CD80 variant IgV-Fc D46E/A71D (from UniProt P33681 35-141) (Fc fusion)”, in test [1], the MFI at 66.6 nM is 16800 MFI. This substance also returned an MFI at 22.2 nM in test [2] of 22800 MFI.
The substance “CD80 variant IgV-Fc E35D (from UniProt P33681 35-141) (Fc fusion)” returned an MFI at 66.6 nM in test [1] of 3450 MFI. The same substance registered an MFI at 22.2 nM in test [2] of 25500 MFI.
Regarding “CD80 variant IgV-Fc E35D/A71D (IgV SEQ ID NO:622) (from UniProt P33681 35-141) (Fc fusion)”, the MFI at 66.6 nM in test [1] amounted to 15000 MFI. In test [2], this substance registered an MFI at 22.2 nM of 13800 MFI.
The matching figures for “CD80 variant IgV-Fc E35D/I67L/A71D (from UniProt P33681 35-141) (Fc fusion)”: 11200 MFI and 9350 MFI.
Regarding “CD80 variant IgV-Fc E35D/M43I/A71D (from UniProt P33681 35-141) (Fc fusion)”, in test [1], the MFI at 66.6 nM was 6370 MFI. The substance further had an MFI at 22.2 nM in test [2] of 27300 MFI.
The matching figures for “CD80 variant IgV-Fc E35G/K54E/A71D/L72P (from UniProt P33681 35-141) (Fc fusion)”: 3700 MFI and 1580 MFI.
The matching figures for “CD80 variant IgV-Fc H18Y/A71D/L72P/E88V (from UniProt P33681 35-141) (Fc fusion)”: 8860 MFI and 1080 MFI.
In test [1], “CD80 variant IgV-Fc T13R/M42V/M47I/A71D (from UniProt P33681 35-141) (Fc fusion)” yielded an MFI at 66.6 nM of 16700 MFI. Further, the MFI at 22.2 nM in test [2] was determined as 1870 MFI.
The matching figures for “CD80 variant IgV-Fc V20I/M47V/A71D (from UniProt P33681 35-141) (Fc fusion)”: 15100 MFI and 9710 MFI.
Consider “CD80 variant IgV-Fc V22L/E35G/A71D/L72P (from UniProt P33681 35-141) (Fc fusion)”, for which the MFI at 66.6 nM in test [1] was determined as 8150 MFI. The substance further showed an MFI at 22.2 nM in test [2] of 1400 MFI.
The substance “CD80 variant IgV-Fc Y31H/E35D/T41S/V68L/K93R/R94W (from UniProt P33681 35-141) (Fc fusion)” registered an MFI at 66.6 nM in test [1] of 2450 MFI. The substance further showed an MFI at 22.2 nM in test [2] of 18900 MFI.
On to “CD155 variant L104E IgV-Fc (from UniProt P15151 24-139) (Fc fusion)”, for which the MFI at 100 nM in test [3] was determined as 1800; in test [4], 1560; in test [5], 3140; in test [6] it was 2260.
For “CD155 variant L104Q IgV-Fc (from UniProt P15151 24-139) (Fc fusion)” the same measures were 2120, 1540, 10300 and 3790.
For “CD155 variant Q62F IgV-Fc (from UniProt P15151 24-139) (Fc fusion)”, the MFI at 100 nM in test [3] came out at 2710; in test [4], 2760; in test [5], 2210; in test [6], 2570.
Turning to “CD155 variant Q62Y IgV-Fc (from UniProt P15151 24-139) (Fc fusion)”, the MFI at 100 nM in test [3] was 1920; in test [4], 1830; in test [5], 2530; in test [6], 2620.
In the case of “CD155 variant S42A, S52L, L104E, G111R IgV-Fc (from UniProt P15151 24-139) (Fc fusion)”, the MFI at 100 nM in test [5] stood at 2260; in test [6], 1890.
Regarding “CD155 variant S42G IgV-Fc (from UniProt P15151 24-139) (Fc fusion)”, the MFI at 100 nM in test [3] came to 1820; in test [4], 1700; in test [5], 4840; in test [6], 2450.
The matching figures for “CD155 variant S42N, L104Q, G111R IgV-Fc (from UniProt P15151 24-139) (Fc fusion)”: 1850, 1960, 2430 and 2310.
Consider “CD155 variant S42N, S52Q, Q62F IgV-Fc (from UniProt P15151 24-139) (Fc fusion)”, for which the MFI at 100 nM stood at 1860 in test [3], 1740 in test [4], 2400 in test [5] and 2150 in test [6].
On to “CD155 variant S42W IgV-Fc (from UniProt P15151 24-139) (Fc fusion)”, for which the MFI at 100 nM in test [3] was determined as 2330; in test [4] it was 2560; in test [5] it was 2430; in test [6] it was 2130.
The matching figures for “CD155 variant S52E IgV-Fc (from UniProt P15151 24-139) (Fc fusion)”: 1900, 1800, 2660 and 2600.
Turning to “CD155 variant S52L IgV-Fc (from UniProt P15151 24-139) (Fc fusion)”, the MFI at 100 nM turned out to be 2040 in test [3], 2040 in test [4], 2220 in test [5] and 2680 in test [6].
Regarding “CD155 variant S52L, L104E IgV-Fc (from UniProt P15151 24-139) (Fc fusion)”, the MFI at 100 nM in test [4] was 1830; in test [5] it was 4320; in test [6], 2210.
For “CD155 variant S52M, L104Q IgV-Fc (from UniProt P15151 24-139) (Fc fusion)”, the MFI at 100 nM in test [3] was 1710; in test [4], 1630; in test [5] it was 2670; in test [6], 2250.
The matching figures for “CD155 variant S52Q IgV-Fc (from UniProt P15151 24-139) (Fc fusion)”: 1790, 1820, 2290 and 2020.
For the substance “CD155 variant S52R IgV-Fc (from UniProt P15151 24-139) (Fc fusion)”, the MFI at 100 nM in test [3] was found to be 2740; in test [4], 4850; in test [5], 4400.
Turning to “CD155 variant S52R, Q62F, L104Q, G111R IgV-Fc (from UniProt P15151 24-139) (Fc fusion)”, the MFI at 100 nM turned out to be 1730 in test [3], 2360 in test [4], 2970 in test [5] and 3170 in test [6].
For the substance “CD155 variant T45Q, S52L, L104E, G111R IgV-Fc (from UniProt P15151 24-139) (Fc fusion)”, the MFI at 100 nM in test [3] is 1740; in test [4], 1580; in test [5], 2290; in test [6], 2390.
For “CD155 variant T45Q, S52L, V57L, L104E IgV-Fc (from UniProt P15151 24-139) (Fc fusion)”, the MFI at 100 nM in test [3] was 1500; in test [4], 1530; in test [5] it was 2860; in test [6], 5940.
On to “CD155 variant T45Q, S52Q IgV-Fc (from UniProt P15151 24-139) (Fc fusion)”, for which the MFI at 100 nM worked out at 1770 in test [3], 2450 in test [4], 4810 in test [5] and 5790 in test [6].
As to “CD155 variant T45Q, S52R, G111R IgV-Fc (from UniProt P15151 24-139) (Fc fusion)”, the MFI at 100 nM in test [3] worked out at 1790; in test [4], 2340; in test [5] it was 4090; in test [6] it was 2080.
“wild-type CD155 IgV-Fc (from UniProt P15151 24-139) (Fc fusion)”: the MFI at 100 nM in test [3] was 2170 and 1740 and 2940; in test [4], 1890 and 1680 and 3270; in test [5], 2180 and 4690; in test [6], 2320 and 2370 and 4690.

The values above are taken from patent US20200040059A1.
